Where two headings read alike, the source gives them in different places.
How the values were obtained:
Canine CD20 [1] = target: T1, Canine CD20 (canine, UniProt Q3C2E2 1-297); assay: FACS on canine PBMC, 2 µg antibody, FITC anti-dog IgG
T1 construct: also called recombinant canine CD20; dog CD20
T1 chain: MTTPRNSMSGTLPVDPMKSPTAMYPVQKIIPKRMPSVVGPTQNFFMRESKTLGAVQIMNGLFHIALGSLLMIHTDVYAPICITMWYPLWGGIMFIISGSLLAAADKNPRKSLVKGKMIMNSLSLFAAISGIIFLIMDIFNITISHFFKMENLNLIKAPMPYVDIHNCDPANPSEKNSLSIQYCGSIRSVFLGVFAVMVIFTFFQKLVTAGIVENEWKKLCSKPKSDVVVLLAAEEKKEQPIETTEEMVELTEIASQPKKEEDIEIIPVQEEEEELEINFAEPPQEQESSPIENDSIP
Experimental: In the present example, the antibody variants are incubated with the CD20 positive cells and the amount of bound antibody is assessed following incubation with a fluorescent-labeled reporter reagent. The reporter is thereafter measured by FACS.
Briefly, for each assay, one million cells of Peripheral Blood Mononuclear Cell (PBMC) isolated from whole blood from a normal dog by standard techniques were resuspended in FACS buffer (PBS+2% FBS). Two μg of the primary antibody are added to the cells and the samples were incubated at 4° C. for 1 h. The primary antibody is provided as supernatants from transfected cells with recombinant antibody constructs or from purified antibody preparation. The mouse anti-dog CD21 mAb (Serotec) recognizing B-lymphocytes is added to the cells as a control to estimate the percentage of B-lymphocytes in a given sample. One ml of FACS buffer are added and cells are spun down for 3 min at 800×g in Eppendorf microcentrifuge. The cells are washed with 1 mL FACS buffer and spun down again. The secondary antibodies such as fluorescein-isothiocynate (FITC) conjugated goat anti-mouse kappa (mFITC, Jackson ImmunoResearch), or the FITC-conjugated goat anti-dog IgG (H+L) (dFITC, Bethyl Laboratories) are added in 100 μL of FACS buffer supplemented with 1% BSA to appropriate tubes and the tubes were incubated at 4° C. for 30 minutes. The wash steps are repeated. The cells are then resuspended in 500 μL FACS buffer and transferred into 12×75 mm polystyrene test tubes. The cells are analyzed by FACS with a FacScan cytometer using the CellQuest software (Becton-Dickenson). Analysis gates are set on the live lymphocyte population based on typical forward and side scatter characteristics. Several controls are utilized to determine the background fluorescence: (i) one tube of cells is incubated with the FITC-conjugated secondary antibody without the primary antibody, and (ii) one tube of cells is incubated with PBS only.
The overall percentage of B-cell subset in this sample is estimated to be approximately 12% based on the binding of the anti-dog CD21 mab control. The results of Table 3 evidence effective binding of the antibody variants to lymphocytes.

Feline CD20 [2] = target: T2, Feline CD20 (feline); assay: FACS on mammalian cells expressing recombinant feline CD20, antibody 2.5 µg/mL
T2 construct: also called recombinant feline CD20
T2 chain: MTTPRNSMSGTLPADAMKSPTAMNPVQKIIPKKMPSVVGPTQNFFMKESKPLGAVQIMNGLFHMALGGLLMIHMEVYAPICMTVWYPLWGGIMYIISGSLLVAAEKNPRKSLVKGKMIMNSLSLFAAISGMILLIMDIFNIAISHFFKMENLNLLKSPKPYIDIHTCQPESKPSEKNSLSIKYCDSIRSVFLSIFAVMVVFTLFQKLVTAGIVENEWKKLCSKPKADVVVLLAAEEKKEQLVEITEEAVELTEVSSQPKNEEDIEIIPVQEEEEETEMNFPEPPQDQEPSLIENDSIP
Experimental: (§1) In the present example, the antibody variants (2.5 μg/mL) are incubated with mammalian cells expressing the recombinant feline CD20 or canine CD20 or control cells. The amount of bound antibody is assessed by detection with a fluorescent-labeled reporter antibody reagent. Several controls are utilized to determine the background fluorescence: (i) CD20 expressing cells are incubated with the conjugated secondary antibody with an isotype antibody, and (ii) Control cells are incubated with the anti-CD20 antibodies.
(§2) The results reported as mean fluorescence units evidence effective binding of the antibodies CD20-2, CD20-5, and CD20-6 to the recombinant canine CD20 expressed in HEK cells. Only CD20-2 and CD20-5 antibodies bind feline CD20 expressed in mammalian cells.

Canine CD20 [3] = target: T1, Canine CD20; assay: FACS on CHO cells expressing recombinant canine CD20
Experimental: The antibody variants of the present invention are compared for their binding affinity to canine CD20. Binding affinity is assessed by measuring binding to the recombinant canine CD20 expressed in CHO cells by FACS analysis as described above.

Canine CD20 [4] = target: T1, Canine CD20; assay: cell-based or functional assay
Canine CD20 [5] = target: T1, Canine CD20; assay: FACS on HEK cells expressing recombinant canine CD20, antibody 2.5 µg/mL
Experimental: as §1, §2

Feline CD20 [6] = target: T2, Feline CD20; assay: FACS on mammalian cells expressing recombinant feline CD20
Experimental: as §1, §2

Canine CD20 [7] = target: T1, Canine CD20; assay: FACS on CHO cells expressing recombinant canine CD20

Binder | % Lymphocytes (Canine CD20 [1]) [%] | Mean Fluorescence (Canine CD20 [1]) | mean fluorescence units (Feline CD20 [2]) [mean fluorescence units] | Kd (Canine CD20 [3]) [nM] | Reduction (%) of cell proliferation of lymphoma cells (Canine CD20 [4]) [%] | mean fluorescence units (Canine CD20 [5]) [mean fluorescence units] | other results
VET 135 × VET 260 (antibody, CD20-2 variable domains on canine constant domains; light chain differs from VET305 (which has the FR4T light chain); also called VET135 x VET260) heavy: QVQLQQSRAELVRPGASVTLSCKPSGYTFTDYEVHWVKQTPVHGLEWIGAIDPETGGTADNQKFKGKAILTADKSSSTAYMELRSLTSEDSAVYYCTNFVDVWGTGTTVTVSSASTTAPSVFPLAPSCGSQSGSTVALACLVSGYFPEPVTVSWNSGSLTSGVHTFPSVLQSSGLYSLSSMVTVPSSRWPSETFTCNVAHPASKTKVDKPVPKRENGRVPRPPDCPKCPAPEMLGGPSVFIFPPKPKDTLLIARTPEVTCVVVDLDPEDPEVQISWFVDGKQMQTAKTQPREEQFNGTYRVVSVLPIGHQDWLKGKQFTCKVNNKALPSPIERTISKARGQAHQPSVYVLPPSREELSKNTVSLTCLIKDFFPPDIDVEWQSNGQQEPESKYRTTPPQLDEDGSYFLYSKLSVDKSRWQRGDTFICAVMHEALHNHYTQKSLSHSPGK light: DVVMSQSPSSLAVSVGEKVTMSCKSSQSLLYSGNQKNYLAWYQQKPGQSPRLLIYWASTRESGVPDRFTGSGSGTDFTLTISSVKAEDLAVFYCQQYYNYPLTFGAGTKLELKGQPKASPSVTLFPPSSEELGANKATLVCLISDFYPSGVTVAWKADGSPITQGVETTKPSKQSNNKYAASSYLSLTPDKWKSHSSFSCLVTHEGSTVEKKVAPAECS | 12.7 | 2660 |  |  |  |  | 
anti-canine CD20 antibody CD20-2 (VET305) (antibody, also called Mab CD20-2) heavy: QVQLQQSRAELVRPGASVTLSCKPSGYTFTDYEVHWVKQTPVHGLEWIGAIDPETGGTADNQKFKGKAILTADKSSSTAYMELRSLTSEDSAVYYCTNFVDVWGTGTTVTVSSASTTAPSVFPLAPSCGSQSGSTVALACLVSGYFPEPVTVSWNSGSLTSGVHTFPSVLQSSGLYSLSSMVTVPSSRWPSETFTCNVAHPASKTKVDKPVPKRENGRVPRPPDCPKCPAPEMLGGPSVFIFPPKPKDTLLIARTPEVTCVVVDLDPEDPEVQISWFVDGKQMQTAKTQPREEQFNGTYRVVSVLPIGHQDWLKGKQFTCKVNNKALPSPIERTISKARGQAHQPSVYVLPPSREELSKNTVSLTCLIKDFFPPDIDVEWQSNGQQEPESKYRTTPPQLDEDGSYFLYSKLSVDKSRWQRGDTFICAVMHEALHNHYTQKSLSHSPGK light: DVVMSQSPSSLAVSVGEKVTMSCKSSQSLLYSGNQKNYLAWYQQKPGQSPRLLIYWASTRESGVPDRFTGSGSGTDFTLTISSVKAEDLAVFYCQQYYNYPLTFGGGTHLTVLGQPKASPSVTLFPPSSEELGANKATLVCLISDFYPSGVTVAWKADGSPITQGVETTKPSKQSNNKYAASSYLSLTPDKWKSHSSFSCLVTHEGSTVEKKVAPAECS |  |  | 2210 | 8.85 | 55 | 2340 | 
anti-canine CD20 antibody CD20-6 (VET309) (antibody, V domains shown, also called Mab CD20-6) VH: EIQLQQSGAELVRPGASVTLSCKASGYTFTDYEMHWVKQTPVHGLEWIGGIDPETGGTAYNQKFKGKAILTADKSSSTVYMELRSLTSEDSAVYYCTRDYGTSGYWGQGTLVTVSS VL: DVVVTQTPLSLPVSFGDQVSISCRSSQSLANSYGNTYLSWYLHKPGQSPQLLIYGISNRFSGVPDRFSGSGSGTDFTLKISRVEAEDLGVYFCSQSTHVPWTFGGGTHLTVLG |  |  | 60 | 63.4 | 27.6 | 2110 | binding result (Feline CD20 [6]): no binding (tested: 2.5 µg/mL)
VET 124 × VET 237 (antibody, V domains shown, also called VET124 x VET237) VH: EVQLQQSVAELVRPGASVTLSCKASGYTFTDYEMHWVKQTPVHGLEWIGEIDPETGGTAYNQKFKGKAILTADKSSSTAYMELRSLTSEDSAVYYCTEYAMDYWGQGTLVTVSS VL: not shown | 13 | 2660 |  |  |  |  | 
VET 133 × VET 260 (antibody, V domains shown, Mixed pairing: CD20-1 light chain with CD20-2 heavy chain; also called VET133 x VET260) VH: QVQLQQSRAELVRPGASVTLSCKPSGYTFTDYEVHWVKQTPVHGLEWIGAIDPETGGTADNQKFKGKAILTADKSSSTAYMELRSLTSEDSAVYYCTNFVDVWGTGTTVTVSS VL: not shown | 13.7 | 2910 |  |  |  |  | 
VET 135 × VET 257 (antibody, V domains shown, Mixed pairing: CD20-2 light chain with CD20-1 heavy chain; also called VET135 x VET257) VH: EIQLQQSGAELVKPGASVKISCKASGYTFTDYYINWVKQRPGQGLEWIGKIGPGSGRTYYNEKFKGKATLTADKSSSTAYIQISSLTSEDSAVYFCAVLSWGQGTTLTVSS VL: DVVMSQSPSSLAVSVGEKVTMSCKSSQSLLYSGNQKNYLAWYQQKPGQSPRLLIYWASTRESGVPDRFTGSGSGTDFTLTISSVKAEDLAVFYCQQYYNYPLTFGAGTKLELKG | 8.33 | 2500 |  |  |  |  | 
VET 133 × VET 257 (antibody, V domains shown, Light chain vector VET133 co-transfected with heavy chain vector VET257 in 293F cells; mouse variable domains on canine constant domains; also called VET133 x VET257) VH: EIQLQQSGAELVKPGASVKISCKASGYTFTDYYINWVKQRPGQGLEWIGKIGPGSGRTYYNEKFKGKATLTADKSSSTAYIQISSLTSEDSAVYFCAVLSWGQGTTLTVSS VL: not shown | 12 | 3170 |  |  |  |  | 
anti-canine CD20 antibody CD20-1 (antibody, V domains shown, called 'recombinant anti-canine CD20 antibody'; also called Mab CD20-1) VH: EIQLQQSGAELVKPGASVKISCKASGYTFTDYYINWVKQRPGQGLEWIGKIGPGSGRTYYNEKFKGKATLTADKSSSTAYIQISSLTSEDSAVYFCAVLSWGQGTTLTVSS VL: not shown |  |  |  |  |  |  | Kd (Canine CD20 [7]): 1 nM
anti-canine CD20 antibody CD20-5 (VET308) (antibody, V domains shown, also called Mab CD20-5) VH: QVQLKQSGAELVKPGASVKISCKASGYTFTDYYINWVKQRPGQGLEWIGKIGPRSGSIYYNEKFKGKATLTADKSSSTAYMQLRSLTSEDSAVYFCAVLKWGQGTLVTVSS VL: not shown |  |  | 2048 | 1.21 | 60.1 | 2770 | 
